# Results as given in article PMC9541495, “Understanding the interaction of 14‐3‐3 proteins with hDMX and hDM2: a structural and biophysical study” (The Febs Journal, 2022).
# T1: 14‐3‐3ε (human, UniProt P62258 1-255)
# T1 construct: 14-3-3 epsilon, human, full-length protein from the pProEx HTb-His-14-3-3 construct; Written as the protomer; tag removal is told only for the ∆C proteins; source: E. coli BL21(DE3), purified (Ni2+-NTA, dialysis)
# T1 sequence (looked up): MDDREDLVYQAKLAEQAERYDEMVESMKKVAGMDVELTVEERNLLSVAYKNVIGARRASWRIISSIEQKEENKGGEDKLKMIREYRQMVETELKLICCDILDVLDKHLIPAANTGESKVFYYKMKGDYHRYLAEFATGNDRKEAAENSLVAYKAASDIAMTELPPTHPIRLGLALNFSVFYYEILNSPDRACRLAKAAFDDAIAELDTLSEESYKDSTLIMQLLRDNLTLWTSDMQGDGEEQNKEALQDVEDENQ
# T2: 14‐3‐3τ (human, UniProt P27348 1-245)
# T2 construct: 14-3-3 tau/theta, human, full-length protein from the pProEx HTb-His-14-3-3 construct; Written as the protomer; tag removal is told only for the ∆C proteins; also called τ/θ; source: E. coli BL21(DE3), purified (Ni2+-NTA, dialysis)
# T2 sequence (looked up): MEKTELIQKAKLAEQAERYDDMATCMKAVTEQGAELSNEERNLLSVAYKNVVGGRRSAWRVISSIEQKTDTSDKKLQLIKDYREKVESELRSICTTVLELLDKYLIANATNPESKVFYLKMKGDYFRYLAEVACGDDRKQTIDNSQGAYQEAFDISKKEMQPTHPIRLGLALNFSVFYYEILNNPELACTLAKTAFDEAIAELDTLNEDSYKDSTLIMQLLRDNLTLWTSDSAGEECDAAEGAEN
# T3: 14‐3‐3β (human, UniProt P31946 1-246)
# T3 construct: 14-3-3 beta, human, full-length protein from the pProEx HTb-His-14-3-3 construct; Written as the protomer; tag removal is told only for the ∆C proteins; source: E. coli BL21(DE3), purified (Ni2+-NTA, dialysis)
# T3 sequence (looked up): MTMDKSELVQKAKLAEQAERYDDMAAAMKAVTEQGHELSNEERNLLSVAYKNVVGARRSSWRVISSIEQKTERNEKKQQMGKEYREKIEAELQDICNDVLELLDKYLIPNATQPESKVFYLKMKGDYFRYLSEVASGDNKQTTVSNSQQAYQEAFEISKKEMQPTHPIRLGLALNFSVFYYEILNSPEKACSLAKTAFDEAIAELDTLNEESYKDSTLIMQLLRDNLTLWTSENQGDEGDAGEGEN
# T4: 14‐3‐3ζ (human, UniProt P63104 1-245)
# T4 construct: 14-3-3 zeta, human, full-length protein from the pProEx HTb-His-14-3-3 construct; Written as the protomer; tag removal is told only for the ∆C proteins; source: E. coli BL21(DE3), purified (Ni2+-NTA, dialysis)
# T4 sequence (looked up): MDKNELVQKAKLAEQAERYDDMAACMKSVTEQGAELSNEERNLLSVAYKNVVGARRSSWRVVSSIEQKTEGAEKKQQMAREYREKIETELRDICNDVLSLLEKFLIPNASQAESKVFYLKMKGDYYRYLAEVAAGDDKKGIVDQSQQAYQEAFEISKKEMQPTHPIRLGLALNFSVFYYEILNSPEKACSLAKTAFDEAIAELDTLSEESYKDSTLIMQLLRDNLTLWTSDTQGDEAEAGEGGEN
# T5: 14‐3‐3σ (human, UniProt P31947 1-248)
# T5 construct: 14-3-3 sigma, human, full-length protein from the pProEx HTb-His-14-3-3 construct (used in the FA assays); Written as the protomer; tag removal is told only for the ∆C proteins; source: E. coli BL21(DE3), purified (Ni2+-NTA, dialysis)
# T5 sequence (looked up): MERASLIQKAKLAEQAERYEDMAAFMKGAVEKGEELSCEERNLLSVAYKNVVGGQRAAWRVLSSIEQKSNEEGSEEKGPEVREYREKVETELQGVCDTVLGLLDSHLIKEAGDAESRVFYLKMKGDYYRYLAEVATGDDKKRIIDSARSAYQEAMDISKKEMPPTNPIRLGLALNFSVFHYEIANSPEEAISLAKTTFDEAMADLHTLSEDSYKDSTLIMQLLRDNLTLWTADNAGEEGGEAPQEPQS
# T6: FAM‐Ahx‐hDMX_(335‐373) ^pSer342/pSer367 (human, phosphoserine at 342 and at 367; N-terminal FAM-Ahx (5,6-carboxyfluorescein on an aminohexanoic acid linker); C-terminal amide)
# T6 construct: hDMX (human double minute 4 protein, hDM4), human, residues 335-373; Tracer form used in the FA assays; source: synthetic peptide (Fmoc SPPS on Rink amide ProTide resin, HPLC purified)
# T6 peptide: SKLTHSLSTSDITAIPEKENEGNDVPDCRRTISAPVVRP
# B1: FAM‐Ahx‐hDM2_(160‐192) ^pSer166/pSer186 (peptide)
# peptide: SRRRAISETEENSDELSGERQRKRHKSDSISLS
# modifications: phosphoserine at 166 and at 186; N-terminal FAM-Ahx (5,6-carboxyfluorescein on an aminohexanoic acid linker); C-terminal amide
# notes: hDM2 (human double minute 2 protein), human, residues 160-192; Tracer form used in the FA assays; source: synthetic peptide (Fmoc SPPS on Rink amide ProTide resin, HPLC purified)
# B2: 14‐3‐3η (natural protein, human, UniProt Q04917 1-246, looked up)
# chain: MGDREQLLQRARLAEQAERYDDMASAMKAVTELNEPLSNEDRNLLSVAYKNVVGARRSSWRVISSIEQKTMADGNEKKLEKVKAYREKIEKELETVCNDVLSLLDKFLIKNCNDFQYESKVFYLKMKGDYYRYLAEVASGEKKNSVVEASEAAYKEAFEISKEQMQPTHPIRLGLALNFSVFYYEIQNAPEQACLLAKQAFDDAIAELDTLNEDSYKDSTLIMQLLRDNLTLWTSDQQDEEAGEGN
# notes: 14-3-3 eta, human, full-length protein from the pProEx HTb-His-14-3-3 construct; Captured on an NTA chip in SPR; source: E. coli BL21(DE3), purified (Ni2+-NTA, dialysis)
# Key:
# 14‐3‐3ε = target: T1, 14‐3‐3ε; assay: fluorescence polarisation; fluorescence anisotropy, direct titration: 14-3-3 protein titrated (1/2 dilution series) against 50 nM FAM-Ahx tracer peptide; 10 mM HEPES, 150 mM NaCl, 0.1% Tween 20, 0.1% BSA, pH 7.4; 384 well plates, triplicates; protein concentration as 14-3-3 monomer; 1:1 fit, biphasic curves fitted as two separate 1:1 events (Kd1, Kd2); conditions: both partners purified
# 14‐3‐3τ = target: T2, 14‐3‐3τ; assay: as above; conditions: both partners purified
# 14‐3‐3β = target: T3, 14‐3‐3β; assay: as above; conditions: both partners purified
# 14‐3‐3ζ = target: T4, 14‐3‐3ζ; assay: as above; conditions: both partners purified
# 14‐3‐3σ = target: T5, 14‐3‐3σ; assay: as above; conditions: both partners purified
# [1] = target: the molecule itself; assay: AUC; sedimentation velocity; 14 μM 14-3-3η alone or with 7 μM or 14 μM hDMX pSer342/pSer367 peptide; 10 mM HEPES, 150 mM NaCl, pH 7.4; 25 °C; c(s) by SEDFIT
# [2] = target: T6, FAM‐Ahx‐hDMX_(335‐373) ^pSer342/pSer367; assay: fluorescence polarisation; fluorescence anisotropy, direct titration: 14-3-3 protein titrated (1/2 dilution series) against 50 nM FAM-Ahx tracer peptide; 10 mM HEPES, 150 mM NaCl, 0.1% Tween 20, 0.1% BSA, pH 7.4; 384 well plates, triplicates; protein concentration as 14-3-3 monomer; 1:1 fit, biphasic curves fitted as two separate 1:1 events (Kd1, Kd2); conditions: both partners purified
# [3] = target: B1; assay: as above; conditions: both partners purified
binding result (14‐3‐3ε),binding result (14‐3‐3τ),binding result (14‐3‐3β),binding result (14‐3‐3ζ),binding result (14‐3‐3σ),Kd1 (first binding event) [2],Kd1 (first binding event) [3],Binder,stoichiometry N [1]
binds,binds,binds,binds,binds,,,B1,
,,,,,0.03 ± 0.006 µM,0.05 ± 0.012 µM,B2,2
